The values below come from the supplement of paper PMC6757056.

Sequences and labels used below:
B1: library; a variant is named by its letters at N, in order (parent)
chain: GCUGUCACCGGUGCUUGGUACGUUAUAUUCAGCCGGUCUGAUGAGUCUNNNNNNAGACGAAACAGC

In series [1] the parent is B1. The series is described as follows: normalized RNA/DNA level without ligand (relative to sTRSVctl = 100) (log10 (% of sTRSVctl)); HEK293T overexpressing SLC46A1; higher = less ribozyme self-cleavage, higher mRNA level. As to conditions: without (6R,S)-folinic acid; ligand present: no. A digest of the protocol:
(§1)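 Library plasmids encoding reporter-linked ribozyme switches (mCherry, or eGFP for some folinic acid experiments) were transfected into HEK293T at 4 µg per 6-well well. Ligand, when used, was added 1 h before transfection. Total RNA was extracted with EDTA 72 h later, then reverse-transcribed, amplified, barcoded and sequenced. RNA level was RNA reads over DNA reads, divided by a spiked-in non-cleaving control (or the top 25 sequences), ×100, log10; only sequences with ≥100 DNA reads were kept.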

Variants of B1 are the subject of series [2]. The series is described as follows: normalized RNA/DNA level with ligand (relative to sTRSVctl = 100) (log10 (% of sTRSVctl)); HEK293T overexpressing SLC46A1; ligand concentration (+) RNA-Seq: 6 mM; higher = less ribozyme self-cleavage, higher mRNA level. Particulars: with (6R,S)-folinic acid; ligand present: yes. A digest of the protocol:
as §1

± gives the standard deviation of the averaged measurements.

For the variant GCUGUCACCGGUGCUUGGUACGUUAUAUUCAGCCGGUCUGAUGAGUCUUACGUAAGACGAAACAGC [UACGUA], in series [1], the “normalized RNA/DNA level without ligand (log10)” value came out at 1.918 ± 0.0029. Besides, the “normalized RNA/DNA level with ligand (log10)” value in series [2] is 1.98 ± 0.037.
In the case of GCUGUCACCGGUGCUUGGUACGUUAUAUUCAGCCGGUCUGAUGAGUCUUACGUCAGACGAAACAGC [UACGUC], in series [1], the “normalized RNA/DNA level without ligand (log10)” value was 2.07 ± 0.019. For the same variant, the “normalized RNA/DNA level with ligand (log10)” value in series [2] was 2.06 ± 0.066.
On to GCUGUCACCGGUGCUUGGUACGUUAUAUUCAGCCGGUCUGAUGAGUCUUACGUUAGACGAAACAGC [UACGUU], for which the “normalized RNA/DNA level without ligand (log10)” value in series [1] worked out at 1.971 ± 0.0048. Besides, in series [2], the “normalized RNA/DNA level with ligand (log10)” value amounted to 1.997 ± 0.014.
The matching figures for GCUGUCACCGGUGCUUGGUACGUUAUAUUCAGCCGGUCUGAUGAGUCUUACGCUAGACGAAACAGC [UACGCU]: 2.0313 ± 0.00036 and 2.043 ± 0.0085.
The like results for GCUGUCACCGGUGCUUGGUACGUUAUAUUCAGCCGGUCUGAUGAGUCUUACGCAAGACGAAACAGC [UACGCA] were, in that order, 1.992 ± 0.013 and 2.03 ± 0.037.
The like results for GCUGUCACCGGUGCUUGGUACGUUAUAUUCAGCCGGUCUGAUGAGUCUUACGCCAGACGAAACAGC [UACGCC] were, in that order, 2.053 ± 0.0091 and 2.07 ± 0.022.
With GCUGUCACCGGUGCUUGGUACGUUAUAUUCAGCCGGUCUGAUGAGUCUUACGCGAGACGAAACAGC [UACGCG], the “normalized RNA/DNA level without ligand (log10)” value in series [1] was 1.79 ± 0.03. Moreover, in series [2], the “normalized RNA/DNA level with ligand (log10)” value worked out at 1.98 ± 0.058.
The matching figures for GCUGUCACCGGUGCUUGGUACGUUAUAUUCAGCCGGUCUGAUGAGUCUCACGUGAGACGAAACAGC [CACGUG]: 2.03 ± 0.022 and 2.05 ± 0.05.
The like results for GCUGUCACCGGUGCUUGGUACGUUAUAUUCAGCCGGUCUGAUGAGUCUCACGUCAGACGAAACAGC [CACGUC] were, in that order, 2.023 ± 0.0096 and 1.987 ± 0.013.
Regarding GCUGUCACCGGUGCUUGGUACGUUAUAUUCAGCCGGUCUGAUGAGUCUCACGUUAGACGAAACAGC [CACGUU], in series [1], the “normalized RNA/DNA level without ligand (log10)” value was found to be 2.0092 ± 0.00093. For the same variant, the “normalized RNA/DNA level with ligand (log10)” value in series [2] was 1.99 ± 0.038.
Regarding GCUGUCACCGGUGCUUGGUACGUUAUAUUCAGCCGGUCUGAUGAGUCUAACGCGAGACGAAACAGC [AACGCG], the “normalized RNA/DNA level without ligand (log10)” value in series [1] was 1.909 ± 0.012. Further, in series [2], the “normalized RNA/DNA level with ligand (log10)” value came out at 2.03 ± 0.026.
The like results for GCUGUCACCGGUGCUUGGUACGUUAUAUUCAGCCGGUCUGAUGAGUCUCACGACAGACGAAACAGC [CACGAC] were, in that order, 2.02 ± 0.023 and 2.02 ± 0.032.
The like results for GCUGUCACCGGUGCUUGGUACGUUAUAUUCAGCCGGUCUGAUGAGUCUCACGAGAGACGAAACAGC [CACGAG] were, in that order, 1.917 ± 0.0095 and 2.003 ± 0.007.
The like results for GCUGUCACCGGUGCUUGGUACGUUAUAUUCAGCCGGUCUGAUGAGUCUGACGUUAGACGAAACAGC [GACGUU] were, in that order, 2 ± 0.022 and 2.01 ± 0.045.
As for GCUGUCACCGGUGCUUGGUACGUUAUAUUCAGCCGGUCUGAUGAGUCUGACGUCAGACGAAACAGC [GACGUC], the “normalized RNA/DNA level without ligand (log10)” value in series [1] is 2.065 ± 0.0072. Further, in series [2], the “normalized RNA/DNA level with ligand (log10)” value worked out at 2.02 ± 0.054.
For the variant GCUGUCACCGGUGCUUGGUACGUUAUAUUCAGCCGGUCUGAUGAGUCUAACGGCAGACGAAACAGC [AACGGC], the “normalized RNA/DNA level without ligand (log10)” value in series [1] came to 2.058 ± 0.0083. In series [2], the “normalized RNA/DNA level with ligand (log10)” value amounted to 2.03 ± 0.027.
The like results for GCUGUCACCGGUGCUUGGUACGUUAUAUUCAGCCGGUCUGAUGAGUCUAACGGUAGACGAAACAGC [AACGGU] were, in that order, 1.96 ± 0.022 and 2 ± 0.021.
Take GCUGUCACCGGUGCUUGGUACGUUAUAUUCAGCCGGUCUGAUGAGUCUAACGGGAGACGAAACAGC [AACGGG]: the “normalized RNA/DNA level without ligand (log10)” value in series [1] amounted to 1.892 ± 0.0076. Further, in series [2], the “normalized RNA/DNA level with ligand (log10)” value worked out at 2.01 ± 0.032.
The like results for GCUGUCACCGGUGCUUGGUACGUUAUAUUCAGCCGGUCUGAUGAGUCUAACGGAAGACGAAACAGC [AACGGA] were, in that order, 1.969 ± 0.019 and 2.02 ± 0.028.
With GCUGUCACCGGUGCUUGGUACGUUAUAUUCAGCCGGUCUGAUGAGUCUAACGUCAGACGAAACAGC [AACGUC], in series [1], the “normalized RNA/DNA level without ligand (log10)” value was determined as 2.066 ± 0.014. In addition, the “normalized RNA/DNA level with ligand (log10)” value in series [2] came out at 2.04 ± 0.021.
The like results for GCUGUCACCGGUGCUUGGUACGUUAUAUUCAGCCGGUCUGAUGAGUCUUACGAAAGACGAAACAGC [UACGAA] were, in that order, 1.913 ± 0.0081 and 1.99 ± 0.03.
Regarding GCUGUCACCGGUGCUUGGUACGUUAUAUUCAGCCGGUCUGAUGAGUCUUACUAAAGACGAAACAGC [UACUAA], the “normalized RNA/DNA level without ligand (log10)” value in series [1] was determined as 1.973 ± 0.0021. The “normalized RNA/DNA level with ligand (log10)” value in series [2] was 2.02 ± 0.0061.
In the case of GCUGUCACCGGUGCUUGGUACGUUAUAUUCAGCCGGUCUGAUGAGUCUGACGACAGACGAAACAGC [GACGAC], the “normalized RNA/DNA level without ligand (log10)” value in series [1] was found to be 1.956 ± 0.004. Besides, in series [2], the “normalized RNA/DNA level with ligand (log10)” value came out at 2.009 ± 0.018.
GCUGUCACCGGUGCUUGGUACGUUAUAUUCAGCCGGUCUGAUGAGUCUGACGCAAGACGAAACAGC [GACGCA]: in series [1], the “normalized RNA/DNA level without ligand (log10)” value came out at 2.005 ± 0.0025. The “normalized RNA/DNA level with ligand (log10)” value in series [2] was found to be 2.01 ± 0.045.
The matching figures for GCUGUCACCGGUGCUUGGUACGUUAUAUUCAGCCGGUCUGAUGAGUCUGACGCGAGACGAAACAGC [GACGCG]: 1.9961 ± 0.00035 and 2.032 ± 0.015.
With GCUGUCACCGGUGCUUGGUACGUUAUAUUCAGCCGGUCUGAUGAGUCUGACGCUAGACGAAACAGC [GACGCU], the “normalized RNA/DNA level without ligand (log10)” value in series [1] came to 2.05 ± 0.0071. In addition, the “normalized RNA/DNA level with ligand (log10)” value in series [2] was found to be 2.03 ± 0.021.
As to GCUGUCACCGGUGCUUGGUACGUUAUAUUCAGCCGGUCUGAUGAGUCUCACGGAAGACGAAACAGC [CACGGA], the “normalized RNA/DNA level without ligand (log10)” value in series [1] stood at 1.99 ± 0.038. In series [2], the “normalized RNA/DNA level with ligand (log10)” value worked out at 2.02 ± 0.029.
Regarding GCUGUCACCGGUGCUUGGUACGUUAUAUUCAGCCGGUCUGAUGAGUCUCACGGUAGACGAAACAGC [CACGGU], in series [1], the “normalized RNA/DNA level without ligand (log10)” value was found to be 1.954 ± 0.0088. The “normalized RNA/DNA level with ligand (log10)” value in series [2] amounted to 1.95 ± 0.04.
Turning to GCUGUCACCGGUGCUUGGUACGUUAUAUUCAGCCGGUCUGAUGAGUCUCACGGGAGACGAAACAGC [CACGGG], the “normalized RNA/DNA level without ligand (log10)” value in series [1] was found to be 1.91 ± 0.0032. The “normalized RNA/DNA level with ligand (log10)” value in series [2] turned out to be 1.992 ± 0.0038.
Consider GCUGUCACCGGUGCUUGGUACGUUAUAUUCAGCCGGUCUGAUGAGUCUCACGGCAGACGAAACAGC [CACGGC], for which the “normalized RNA/DNA level without ligand (log10)” value in series [1] came to 2.046 ± 0.014. In addition, the “normalized RNA/DNA level with ligand (log10)” value in series [2] worked out at 2.03 ± 0.026.
As to GCUGUCACCGGUGCUUGGUACGUUAUAUUCAGCCGGUCUGAUGAGUCUUACGGCAGACGAAACAGC [UACGGC], the “normalized RNA/DNA level without ligand (log10)” value in series [1] was found to be 2.05 ± 0.0049. In series [2], the “normalized RNA/DNA level with ligand (log10)” value stood at 2.05 ± 0.063.
The matching figures for GCUGUCACCGGUGCUUGGUACGUUAUAUUCAGCCGGUCUGAUGAGUCUGACUAAAGACGAAACAGC [GACUAA]: 1.977 ± 0.008 and 1.98 ± 0.043.
The matching figures for GCUGUCACCGGUGCUUGGUACGUUAUAUUCAGCCGGUCUGAUGAGUCUGACGGCAGACGAAACAGC [GACGGC]: 2.03 ± 0.016 and 2.04 ± 0.072.
Consider GCUGUCACCGGUGCUUGGUACGUUAUAUUCAGCCGGUCUGAUGAGUCUCACUAAAGACGAAACAGC [CACUAA], for which, in series [1], the “normalized RNA/DNA level without ligand (log10)” value came to 1.961 ± 0.01. Besides, the “normalized RNA/DNA level with ligand (log10)” value in series [2] was determined as 2.0172 ± 0.0006.
The matching figures for GCUGUCACCGGUGCUUGGUACGUUAUAUUCAGCCGGUCUGAUGAGUCUCACUACAGACGAAACAGC [CACUAC]: 2.0166 ± 0.00023 and 2.01 ± 0.074.
As for GCUGUCACCGGUGCUUGGUACGUUAUAUUCAGCCGGUCUGAUGAGUCUCACGCGAGACGAAACAGC [CACGCG], the “normalized RNA/DNA level without ligand (log10)” value in series [1] was 2 ± 0.023. Moreover, in series [2], the “normalized RNA/DNA level with ligand (log10)” value came to 1.997 ± 0.0065.
Take GCUGUCACCGGUGCUUGGUACGUUAUAUUCAGCCGGUCUGAUGAGUCUCACGCCAGACGAAACAGC [CACGCC]: in series [1], the “normalized RNA/DNA level without ligand (log10)” value was found to be 2.041 ± 0.011. In series [2], the “normalized RNA/DNA level with ligand (log10)” value turned out to be 1.99 ± 0.047.
The like results for GCUGUCACCGGUGCUUGGUACGUUAUAUUCAGCCGGUCUGAUGAGUCUCACGCUAGACGAAACAGC [CACGCU] were, in that order, 2.042 ± 0.0097 and 2.034 ± 0.011.
The matching figures for GCUGUCACCGGUGCUUGGUACGUUAUAUUCAGCCGGUCUGAUGAGUCUAACGAUAGACGAAACAGC [AACGAU]: 1.959 ± 0.018 and 2 ± 0.035.
The matching figures for GCUGUCACCGGUGCUUGGUACGUUAUAUUCAGCCGGUCUGAUGAGUCUAACGACAGACGAAACAGC [AACGAC]: 2.017 ± 0.013 and 1.991 ± 0.019.
As to GCUGUCACCGGUGCUUGGUACGUUAUAUUCAGCCGGUCUGAUGAGUCUAACUAAAGACGAAACAGC [AACUAA], in series [1], the “normalized RNA/DNA level without ligand (log10)” value is 1.97 ± 0.023. The “normalized RNA/DNA level with ligand (log10)” value in series [2] was 1.96 ± 0.026.
